From the supplement of paper PMC7125110
± gives the standard error. Fewer inactive variants are shown than the library holds.

B1: glmS ribozyme (parent)
chain: AUAAAAGCGCCAGAACUACAGAAAUGUAGUUGACGAGGAGGAGGUUUAUCGAAUUUUCGGCGGAUGCCUCCAAA

Assays:
Conditions in all cases: with glucosamine-6-phosphate
glucosamine-6-phosphate [1] = variants of: B1; assay: self-cleavage kobs at 40 uM GlcN6P; higher = faster cleavage; RNA array
Outline: (§1)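 Barcoded ribozyme variants were transcribed in situ on sequenced MiSeq chips by E. coli RNA polymerase. At 37 °C, a hybridised Cy3 probe tracked them while glucosamine-6-phosphate (40 μM to 10 mM) in HEPES/KCl/Mg(OAc)2 buffer flowed in and tiles were imaged over ~14 h. Per-tile medians of signals normalised to baseline and to non-cleaving reference variants were fit to one- or two-exponential decays, giving kobs. kcat and KM came from weighted Michaelis–Menten fits across concentrations.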

glucosamine-6-phosphate [2] = variants of: B1; assay: self-cleavage kobs at 640 uM GlcN6P; higher = faster cleavage; RNA array
Outline: as §1

glucosamine-6-phosphate [3] = variants of: B1; assay: self-cleavage kobs at 2500 uM GlcN6P; higher = faster cleavage; RNA array
Outline: as §1

glucosamine-6-phosphate [4] = variants of: B1; assay: self-cleavage kobs at 10000 uM GlcN6P; higher = faster cleavage; RNA array
Outline: as §1

glucosamine-6-phosphate [5] = variants of: B1; assay: self-cleavage kobs at 160 uM GlcN6P; higher = faster cleavage; RNA array
Outline: as §1

| Variant | self-cleavage kobs at 40 uM GlcN6P (glucosamine-6-phosphate [1]) [s⁻¹] | self-cleavage kobs at 640 uM GlcN6P (glucosamine-6-phosphate [2]) [s⁻¹] | self-cleavage kobs at 2500 uM GlcN6P (glucosamine-6-phosphate [3]) [s⁻¹] | self-cleavage kobs at 10000 uM GlcN6P (glucosamine-6-phosphate [4]) [s⁻¹] | self-cleavage kobs at 160 uM GlcN6P (glucosamine-6-phosphate [5]) [s⁻¹] |
| --- | --- | --- | --- | --- | --- |
| AUAAAAGCGCCAGACCUACAGAAAUGUAGUUGACGAGGAGGAGGUUUAUGGAGUUUUCGGCAGAUGCCUGCAAA [A15C C50G A53G G62A C70G] | 0.000105 ± 3e-05 | 8.17e-05 ± 2.4e-05 | 0.000125 ± 4.1e-05 | 8.78e-05 ± 1.9e-05 |  |
| AUAAAAGCGCCAGAACUACAGAAAUGUAGUUGACGAGGAGGAGGAUUAUCGAAUUUUCGGCGGAUGACUCCAAA [U45A C67A] | 0.000364 ± 5.5e-05 |  | 0.00568 ± 0.0022 | 0.00719 ± 0.0014 |  |
| AUAAAAGCGACAGAACUACAGAAAUGUAGUUCACGAGGAGAAGGUUUAUCGAAUUUUCGGCGGAUGCCUCCAAA [C10A G32C G41A] | < 1e-05 |  |  |  |  |
| AUAAAAGCACCAGAACUACAGAAAUGUAGUUGACGAGGAGGGUGUUUAUCGAAUUUUCGGAGGAUGCCUCCAAA [G9A A42G G43U C61A] | < 1e-05 | < 1e-05 |  |  |  |
| AUAAAAGCGCCAGAACUACAGAAAUGUAGUUGACGAGGAGGAGGUUUCUCGAAUUUUCGGCGGAUGCCUCAAAA [A48C C71A] | < 1e-05 |  | 3.84e-05 ± 1.4e-05 | 4.23e-05 ± 1e-05 | < 1e-05 |
| AUAAAAGUGCCAGAACUACAGAAAUGUAGUUGACGAGGAGGAGGGUUAUCGAAUUUUCGGCGGAUGCCUCCAAA [C8U U45G] | < 1e-05 | < 1e-05 | < 1e-05 |  | < 1e-05 |
| AUAAAAGCGCCAGAACUACAGAAAUGUAGUUGACGAGUAGGAGGUUUAUCGGAUUUUCGGCGGAUGCCGCCAAA [G38U A52G U69G] | 0.000147 ± 5.7e-05 |  |  | 7.13e-05 ± 1.9e-05 |  |
| AUAAAAGCGCCAGAACUACAGAAAUGUAGUUGACGAGGAGGAGGUUUAUCGAAUAUUCGGCAGAUGCCUCCAAA [U55A G62A] | < 1e-05 |  | < 1e-05 |  |  |
| AUAAAAGCGCCAGAACUACAGAAAUGUAGUUGACAAGGAGGAGGUUAAUCGAAUUUCCGGCGGAUACCUCCAAA [G35A U47A U57C G66A] | < 1e-05 |  |  |  |  |
| AUAAAAGCGCCAGAACUACAGAAAUGUAGUUGACGAGGAGAAGGUUUGUCGAAUUUUCGGCGGAUGCCUCCAAA [G41A A48G] | < 1e-05 | < 1e-05 | < 1e-05 |  | < 1e-05 |
| AUAAAAGCGCCAGAGCUACAGAAAUGUAGUUGACGAGGAGGAGGUUUAUCGAAUUUUCGGCGGGUGCCUCCAAA [A15G A64G] | 0.000819 ± 0.00013 | 0.0063 ± 0.0012 | 0.00698 ± 0.0018 | 0.0604 ± 0.017 | 0.00196 ± 0.00048 |
| AUAAAAGCGCCAGAACUACAGAAAUGUAGUUGACGAGGAGGAGGUUUAUCGUAUUUUCGACGGAUGCCUCCAAA [A52U G60A] | < 1e-05 | < 1e-05 |  | < 1e-05 | < 1e-05 |
| AUAAAAGCGCCAGAACUACAGAAAUGUAGUUGACGAGUAGGAGGUUUAUCGCAUUUUCGGAGGAUGCCUCCAAA [G38U A52C C61A] | < 1e-05 |  |  |  |  |
| AUAAAGGCGCCAGAACUACAGAAAUGUAGUUGACGAGGAGGAGGUUUAUGGAAUUUUGGGCGGAUGCCUCCAAA [A6G C50G C58G] | 0.000111 ± 2.7e-05 |  |  |  | 0.000451 ± 0.0001 |
| AUAAAAGCGCCAGCACUACAGAAAUGUAGUUGACGAGGAGGAGGUUUAUCGACUUUUCGGCCGAUGCGUCCAAA [A14C A53C G62C C68G] | < 1e-05 |  |  | < 1e-05 |  |
| AUAAAAGCGCCAGAACUACAGAAAUGUAGUUCACGAGGAGGAGGUUUAUCGAAUUUUCGGCGGAUGCCGCCAAA [G32C U69G] | 0.000189 ± 3.1e-05 | 0.000383 ± 8e-05 | 0.000111 ± 2.5e-05 | 9.57e-05 ± 1.1e-05 |  |
| AUAAAUGCGCCAGAGCUACAGAAAUGUAGUGGACGAGGAGAAGGUUUAUCGAAUUUUCGGCGGAUGCCUCCAAA [A6U A15G U31G G41A] | < 1e-05 |  |  | < 1e-05 |  |
| AUAAAAGCGCCAGAACUACAGAAAUGUAGUUGACGAGCAGGAGGUUUAUCGAAUUUUCGGCGGAUGUCUCCAAA [G38C C67U] | < 1e-05 |  | < 1e-05 | < 1e-05 |  |
| AUAAAACCGCCAGAUCUACAGAAAUGUAGUUGACGAGGAGGAGGUUUAUCGAAUUUUCCGCGGAUGCCUCCAAA [G7C A15U G59C] | < 1e-05 | < 1e-05 | < 1e-05 | < 1e-05 | < 1e-05 |
| AUAAAAGCGCCAGAACUACAGAAAUGUAGUUGACGAGGCGGAGGUUUAUCGGAUUUUCUGCGGAUGCCGCCAAA [A39C A52G G59U U69G] | < 1e-05 |  |  |  |  |
| AUAAAAGCGCCAGAACUACAGAAAUGUAGUUGACGAGGCGGAGGUUUACCGAAUUUUCGGCGGAUGCCUCCAAA [A39C U49C] | < 1e-05 |  |  | < 1e-05 | < 1e-05 |
| AUAAAAGCGCCAGAACUACAGAAAUGUAGUUGACGAGGAGGAGCUUUUUCGAAUUUUCGGCGGAUGCCUCCAAA [G44C A48U] | < 1e-05 | < 1e-05 | < 1e-05 | < 1e-05 | < 1e-05 |
| AUAAAAGCGGCAGAACUACAGAAAUGUAGUUGACGAGUAGGAGGUUUAUCGAAUUUUCGGCGGAGGCCUCCAAA [C10G G38U U65G] | < 1e-05 |  |  | < 1e-05 |  |
| AUAAAGGCGCCAGAACUACAGAAAUGUAGUUGACGAGGAGGAGUUUUAUCGAAUUUUCGGCGGAUGCCUCCAAA [A6G G44U] | < 1e-05 | < 1e-05 | < 1e-05 | < 1e-05 |  |
| AUAAAAGCGCCCGAACUACAGAAAUGUAGUUGACGCGGAGGAGGUUUAUCGAAGUUUCGGCGGAUGCCUCCAAA [A12C A36C U54G] | < 1e-05 |  |  |  |  |
| AUAAAAGCGCCAGAACUACAGAAAUGUAGUUGACGAGUAGGAGGUUUAUCGCAUUUUCGGCGGAUGCCUCCAAA [G38U A52C] | < 1e-05 | < 1e-05 |  | < 1e-05 |  |
